The nature of series [1]: Amount of lactone-cyclized L2 lariat, ESI-TOF MS and Na18OH cleavage. It is filed as physicochemical. The source says: FIG. 17. Analysis of L2 Lariat. […] (i) Yeast growth on nonselective His^−,Trp^− glucose media. […] (i) Lariat cyclized through a lactone bond. (ii) Lariat cleaved prior to Na^18OH treatment.
FIG. 20. Quantification of Lariat Prior to MS analysis. (a) Analysis of ^18O incorporation at the tyrosine carboxylic acid at position (IN−1). Trypsin digest of the Na^18OH treated lariat produces a peptide fragment containing tyrosine at position (IN−1) ([…]). The ^16O product has a calculated mass of 966.420 m/z and the ^18O product has a calculated mass of 968.420 m/z. (b) Mass spectrometry analysis of […] peptide fragment from the Na^16OH or Na^18OH treated samples over layed with the theoretical isotope distribution (MS-ISOTOPE software). In the Na^18OH treated sample there is a large deviation from the theoretical distribution indicating the presence of more than one peptide. […] The 1+ and 2+ charged fragments were analyzed and similar results were observed. Only the 1+ charge is shown. (d) Overlay of the sum of the calculated contributions of the ^18O and […] on the observed […] peptide fragment spectrum. (e) Analysis of ^18O incorporation at the serine side chain at position (IC+1). Trypsin digest of the Na^18OH treated lariat produces a peptide fragment containing serine at position (IC+1) ([…]). The mass of this fragment is 2590.352 m/z corresponding to a product 1 Da heavier than the predicted ^18O incorporated product. A 1 Da shift can be attributed to deamidation of asparagine. […] The 2+, 3+4+and 5+charged fragments were analyzed and similar results were obtained. […] (h) Overlay of the sum of the calculated contributions of the ^18O and ^16O peptides on the observed […] peptide fragment spectrum.
We used LC-ESI-TOF MS to confirm the molecular weight of the His-tag lariat purified from E. coli. To confirm the presence of the lariat lactone prior to MS analysis, we treated His-tag lariat with 0.5 M Na^18OH, purified the products using reverse-phase HPLC, digested them with trypsin, and analyzed the molecular weight of the trypsin fragments using LC-ESI-TOF MS. […]

The subject of a further series is BL21-CP cells. The series can be described thus: Bacterial viability (survival) assay with and without MMC. It is filed as cell-based, E. coli. The settings on record: one hour. The protocol:
(§1) FIG. 21. Biological Activity of L2 Lariat and Cyclic Peptide.
FIG. 22. […] Survival assay for BL21-CP cells treated synthetic linear L2 peptide. Cell survival is reported relative to the untreated control.
We performed cell viability assays as described by Lin and Little (Lin, L. L. & Little, J. W. (1988) Bacteriol. 170:2163-2173). For assays where L2 lariat is expressed from pET28b plasmid, we cultured BL21(DE3)-CP containing pETIL-L2 or pETIL-01 to an OD600 of 0.4 in LB-KAN at 37° C. We split the samples in two and induced one sample with 1 mM IPTG for 1 hour and left the other the other sample uninduced. […] We removed 10 μL and diluted it […] in ice cold LB (1 mL) for a zero time point control. We incubated the remaining sample at 37° C. for 1 hour and then removed 10 μL and diluted 1000-fold into 1 mL ice-cold LB. We plated a 60 μl aliquot from the 0 and 1 hour samples on LB plates and incubated the plates at 37° C. overnight.

Series [2] has as its system SOS-regulated sulA promoter (sulA-GFP). Briefly: MMC-induced expression of sulA-GFP (SOS response genes), flow cytometry. It is filed as cell-based, E. coli. Conditions: SMR6039-DE3 with pETIL-L2, IPTG-induced versus uninduced, 0.1 μg/mL MMC.
Excerpt: as §1
We used the SMR6039 E. coli strain, which expresses GFP under the control of a SOS-regulated sulA promoter (Hastings, P. J. et al. (2004) PLoS Biol. 2:e399) to monitor induction of the SOS response pathway. We used the λDE3 Lysogenization Kit (Novagen) to modify SMR6039 to express T7 RNA polymerase, which allows expression of the L.2 lariat from the T7 promoter in pETIL-L2 plasmid. […] We measured the GFP fluorescence of the samples using flow cytometery (Epics X L, Coultier, Mississauga, ON). We scored cells as positive for SOS induction in they expressed more than one fluorescence unit of GFP.
(In general: Flow cytometry measures light scatter and fluorescence of single cells or particles in a stream.)

A further series concerns the target LexA (Escherichia coli, UniProt P0A7C2). Conditions: BL21-CP cells expressing the lariat, 0.1 μg/mL MMC, 0-3 hours. The source says:
FIG. 21. Biological Activity of L2 Lariat and Cyclic Peptide. […] Error bars represent the standard deviation of three independent experiments.

Where [3] appears, read: His-tag lariat from pETIL-L2 in BL21-CP.

The values below come from patent publication US20130273553A9, “STABILIZATION OF CYCLIC PEPTIDE STRUCTURES” (priority 2007, published 2013).

Chain of LexA (P0A7C2 whole entry): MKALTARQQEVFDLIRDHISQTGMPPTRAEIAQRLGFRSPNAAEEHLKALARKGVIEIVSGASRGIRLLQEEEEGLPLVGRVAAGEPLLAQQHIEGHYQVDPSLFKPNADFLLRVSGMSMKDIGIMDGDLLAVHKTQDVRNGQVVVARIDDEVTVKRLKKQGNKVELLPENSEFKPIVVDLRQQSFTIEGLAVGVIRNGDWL

On to “L2 lariat: anti-LexA lariat, lactone-cyclized noose sequence (RSWDLPGEY), expressed from Ssp DnaE lariat intein with Asn to Ala at IC−1 (G7)”, for which, in series [1] (setting [3]), the “fraction of product corresponding to hydrolyzed lariat (8669 Da) by MS” value is 85% and the “fraction of product corresponding to the L2 lariat (8651 Da) by MS” value amounted to 15%. Also, in series [1] (from fraction of 18O incorporated after Na18OH cleavage and trypsin digest), the “lariat cyclized prior to MS analysis” value turned out to be 46%. Moreover, the “viability with lariat expression plus MMC” value with BL21-CP cells (of the control, IPTG induction plus MMC 0.1 μg/mL) is given as less than 1%. For the same substance, the “viability on expression of the lariat alone” value in the series with BL21-CP cells (of the uninduced controls, IPTG induction, no MMC, 0.85% NaCl) is given as approximately 35%. Moreover, in series [2], the “percentage of GFP expressing cells (sulA-GFP) after MMC” value is listed as “decreases”. For the same substance, in the series with LexA, the “MMC-induced LexA cleavage” value is recorded as “not observed after three hours”.
